# Assay results: US20090202533A1 (CSL, published 2009)
# T1: murine IL-11R on Ba/F3 cells stably transfected with murine IL-11R/gp130 (murine, UniProt Q64385 24-432)
# T1 sequence (looked up): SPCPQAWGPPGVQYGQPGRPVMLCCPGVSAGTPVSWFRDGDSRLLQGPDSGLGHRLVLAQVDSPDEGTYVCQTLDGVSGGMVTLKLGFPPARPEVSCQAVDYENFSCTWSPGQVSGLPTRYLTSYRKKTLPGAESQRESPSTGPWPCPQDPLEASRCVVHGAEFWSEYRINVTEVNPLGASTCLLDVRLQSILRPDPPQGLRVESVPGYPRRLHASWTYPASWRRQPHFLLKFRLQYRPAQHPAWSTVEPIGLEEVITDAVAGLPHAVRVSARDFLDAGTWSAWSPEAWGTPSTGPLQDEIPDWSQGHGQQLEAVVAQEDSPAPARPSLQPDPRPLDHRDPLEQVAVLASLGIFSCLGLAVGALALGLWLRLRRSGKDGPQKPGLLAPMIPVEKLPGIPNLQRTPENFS
# Key:
# IL-11R-Fc [1] = assay: competition ELISA on IL-11R-Fc
# IL-11R-Fc [2] = assay: IL-11R binding ELISA
# [3] = target: T1, murine IL-11R on Ba/F3 cells stably …; assay: cell-based or functional assay
fold higher binding affinity than murine W147A IL-11 (IL-11R-Fc [1]) [fold],fold reduction of binding affinity relative to non-PEGylated mutein (IL-11R-Fc [2]) [fold],"ability to antagonize IL-11-induced Ba/F3 cell proliferation, relative to non-PEGylated mutein [3] [fold]",Molecule
20,–,–,"IL-11 mutein of SEQ ID NO: 1 (AMSAG at positions 58-62 of mature murine IL-11 replaced with PAIDY, tryptophan at position 147 replaced with alanine), N-terminal His-tagged (from UniProt P47873 22-199) (ligand)"
–,5,~10,"PEGylated mutein (mutein of SEQ ID NO: 3 with a single 40 kDa PEG moiety on the Cys introduced at position 147) (ligand, mPEG2-maleimide (single 40 kDa PEG moiety) on the Cys introduced at position 147 (position as printed, numbering of mature murine IL-11)) VSSDPRADLDSAVLLTRSLLADTRQLAAQMRDKFPADGDHSLDSLPTLPAIDYTLGSLQLPGVLTRLRVDLMSYLRHVQWLRRAGGPSLKTLEPELGALQARLERLLRRLQLLMSRLALPQAAPDQPVIPLGPPASACGSIRAAHAILGGLHLTLDWAVRGLLLLKTRL"
